4 molecules from patent publication US20030044418A1 (TEXAS A AND M UNIVERSITY SYSTEM UNIVERSITY, published 2003) can be followed below.

T1: Aα chain of Fg (UniProt P02671 20-629)
T1 construct: Chain of native Fg on a Western ligand blot
T1 sequence: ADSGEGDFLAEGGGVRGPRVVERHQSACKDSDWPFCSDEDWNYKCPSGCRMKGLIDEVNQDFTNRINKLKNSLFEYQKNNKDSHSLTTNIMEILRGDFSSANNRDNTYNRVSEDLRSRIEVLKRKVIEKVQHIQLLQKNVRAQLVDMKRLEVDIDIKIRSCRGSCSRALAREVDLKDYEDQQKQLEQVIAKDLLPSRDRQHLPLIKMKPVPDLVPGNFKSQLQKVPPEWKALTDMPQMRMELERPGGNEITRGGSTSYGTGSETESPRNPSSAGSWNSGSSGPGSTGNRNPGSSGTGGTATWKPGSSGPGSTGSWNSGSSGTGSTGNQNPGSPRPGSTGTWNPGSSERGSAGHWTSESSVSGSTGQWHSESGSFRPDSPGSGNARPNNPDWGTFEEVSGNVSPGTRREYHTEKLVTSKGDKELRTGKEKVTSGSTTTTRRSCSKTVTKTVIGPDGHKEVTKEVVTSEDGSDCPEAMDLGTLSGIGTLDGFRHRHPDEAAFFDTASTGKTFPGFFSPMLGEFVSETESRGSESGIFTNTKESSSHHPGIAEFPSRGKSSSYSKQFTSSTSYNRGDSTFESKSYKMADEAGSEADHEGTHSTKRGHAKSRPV

T2: thrombin digested Fg (human, UniProt P02671 36-629; P02675 45-491; P02679 27-437)
T2 construct: Fg coated on wells and treated with 1.0 NIH unit/ml thrombin for 30 min; also called thrombin-treated Fg; Fg treated with thrombin
T2 sequence 1: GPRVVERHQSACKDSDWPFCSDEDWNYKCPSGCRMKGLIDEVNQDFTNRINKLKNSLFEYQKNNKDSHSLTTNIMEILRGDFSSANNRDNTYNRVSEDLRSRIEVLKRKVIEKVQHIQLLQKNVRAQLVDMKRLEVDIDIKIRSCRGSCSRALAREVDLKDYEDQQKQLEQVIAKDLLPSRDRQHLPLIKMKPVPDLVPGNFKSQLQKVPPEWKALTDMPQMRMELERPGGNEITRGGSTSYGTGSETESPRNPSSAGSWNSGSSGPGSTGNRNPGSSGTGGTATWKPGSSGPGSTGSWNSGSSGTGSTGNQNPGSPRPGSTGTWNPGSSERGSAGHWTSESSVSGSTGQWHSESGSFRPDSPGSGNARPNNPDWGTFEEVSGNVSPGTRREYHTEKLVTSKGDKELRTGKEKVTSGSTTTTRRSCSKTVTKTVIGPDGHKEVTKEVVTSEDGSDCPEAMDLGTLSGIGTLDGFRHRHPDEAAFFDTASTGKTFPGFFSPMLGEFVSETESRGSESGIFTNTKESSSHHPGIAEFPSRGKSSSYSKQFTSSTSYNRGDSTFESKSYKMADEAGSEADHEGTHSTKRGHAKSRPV
T2 sequence 2: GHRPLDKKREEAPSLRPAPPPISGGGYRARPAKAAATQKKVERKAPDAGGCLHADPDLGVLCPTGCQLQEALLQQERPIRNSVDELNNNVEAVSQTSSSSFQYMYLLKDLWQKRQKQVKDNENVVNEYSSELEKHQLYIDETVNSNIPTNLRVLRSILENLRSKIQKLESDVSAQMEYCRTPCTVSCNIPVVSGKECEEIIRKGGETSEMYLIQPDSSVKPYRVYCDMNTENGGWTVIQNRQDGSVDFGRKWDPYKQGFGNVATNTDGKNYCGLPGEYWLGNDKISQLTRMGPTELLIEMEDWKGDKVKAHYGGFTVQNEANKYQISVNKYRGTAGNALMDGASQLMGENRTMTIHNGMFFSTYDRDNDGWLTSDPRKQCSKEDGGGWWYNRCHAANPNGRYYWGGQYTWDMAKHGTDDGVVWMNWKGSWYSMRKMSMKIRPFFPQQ
T2 sequence 3: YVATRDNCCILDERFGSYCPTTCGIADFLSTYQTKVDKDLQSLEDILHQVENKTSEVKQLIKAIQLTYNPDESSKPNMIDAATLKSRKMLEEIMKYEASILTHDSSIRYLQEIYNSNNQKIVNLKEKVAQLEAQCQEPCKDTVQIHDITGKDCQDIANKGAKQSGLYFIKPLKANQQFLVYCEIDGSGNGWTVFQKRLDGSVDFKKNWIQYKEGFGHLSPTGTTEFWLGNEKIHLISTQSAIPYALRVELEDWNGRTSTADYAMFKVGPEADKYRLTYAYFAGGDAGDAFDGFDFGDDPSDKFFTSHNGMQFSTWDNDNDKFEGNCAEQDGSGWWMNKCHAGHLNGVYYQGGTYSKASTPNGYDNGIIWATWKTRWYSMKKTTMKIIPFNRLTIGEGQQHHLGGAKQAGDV

T3: fibrinogen (Fg) (human, UniProt P02671 20-629; P02675 31-491; P02679 27-437)
T3 construct: Purified native Fg bought from Enzyme Research Labs, coated on microtiter wells (1 µg); also called human Fg; immobilized Fg
T3 sequence 1: T1 sequence
T3 sequence 2: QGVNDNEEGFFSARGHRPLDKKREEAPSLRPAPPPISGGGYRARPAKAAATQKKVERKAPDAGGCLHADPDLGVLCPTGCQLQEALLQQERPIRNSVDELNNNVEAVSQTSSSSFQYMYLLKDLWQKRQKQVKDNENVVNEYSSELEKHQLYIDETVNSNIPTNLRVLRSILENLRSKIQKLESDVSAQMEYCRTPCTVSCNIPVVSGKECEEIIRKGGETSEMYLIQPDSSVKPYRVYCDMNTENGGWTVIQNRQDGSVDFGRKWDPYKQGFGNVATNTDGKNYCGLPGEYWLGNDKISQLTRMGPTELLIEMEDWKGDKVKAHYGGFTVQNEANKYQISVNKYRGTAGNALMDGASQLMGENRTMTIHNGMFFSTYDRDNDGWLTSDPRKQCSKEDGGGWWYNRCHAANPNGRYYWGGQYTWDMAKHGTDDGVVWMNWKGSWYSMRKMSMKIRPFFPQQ
T3 sequence 3: T2 sequence 3

T4: Fg treated with contortrixobin (human, UniProt P02671 20-629; P02675 45-491; P02679 27-437)
T4 construct: Fg coated on wells and treated for 30 min at room temperature with contortrixobin from Agkistrodon contortrix contortrix; also called contortrixobin-treated Fg
T4 sequence 1: T1 sequence
T4 sequence 2: T2 sequence 2
T4 sequence 3: T2 sequence 3

B1: fibrinopeptide B (peptide)
peptide: QGVNDNEEGFFSAR
notes: Bought from Bachem; also called FpB; FpB (1-14)
B2: fluorescein-labeled β1-25 peptide (peptide)
peptide: QGVNDNEEGFFSARGHRPLDKKREE
modifications: ends and bridges not checked; also: fluorescein label, position not given here
notes: used at 10 nM in fluorescence polarization; also called fluorescein-labeled N-terminal Bβ chain peptide β1-25; labeled peptide
B3: rSdrG(50-597) (other)
chain: HHHHHHAEENTVQDVKDSNMDDELSDSNDQSSNEEKNDVINNSQSINTDDDNQIKKEETNSNDAIENRSKDITQSTTNVDENEATFLQKTPQDNTQLKEEVVKEPSSVESSNSSMDTAQQPSHTTINSEASIQTSDNEENSRVSDFANSKIIESNTESNKEENTIEQPNKVREDSITSQPSSYKNIDEKISNQDELLNLPINEYENKVRPLSTTSAQPSSKRVTVNQLAAEQGSNVNHLIKVTDQSITEGYDDSDGIIKAHDAENLIYDVTFEVDDKVKSGDTMTVNIDKNTVPSDLTDSFAIPKIKDNSGEIIATGTYDNTNKQITYTFTDYVDKYENIKAHLKLTSYIDKSKVPNNNTKLDVEYKTALSSVNKTITVEYQKPNENRTANLQSMFTNIDTKNHTVEQTIYINPLRYSAKETNVNISGNGDEGSTIIDDSTIIKVYKVGDNQNLPDSNRIYDYSEYEDVTNDDYAQLGNNNDVNINFGNIDSPYIIKVISKYDPNKDDYTTIQQTVTMQTTINEYTGEFRTASYDNTIAFSTSSGQGQGDLPPE
notes: Used biotin labeled in the Western ligand blots and in the ELISAs on protease-treated Fg; also called recombinant SdrG A-region; recombinant form of the N-terminal A-region of SdrG
B4: native Bβ chain of fibrinogen (ligand)
chain: T3 sequence 2
notes: Chain of native Fg on a Western ligand blot; also called Fg Bβ chain

No end group written: not given here.

The target of test [1] is B3. Kind of test: inhibition ELISA, peptide varied, 50 nM rSdrG(50-597), Fg-coated wells; reference β1-25.
Test [2] has as its target B3. Kind of test: fluorescence polarization, increasing rSdrG(50-597) with 10 nM fluorescein-labeled β1-25, three experiments.
In a further test the target is T1, Aα chain of Fg. Kind of test: Western ligand blot, biotin labeled rSdrG(50-597).
A further test has as its target T2, thrombin digested Fg. Kind of test: ELISA, Fg-coated wells pretreated with thrombin, biotin labeled rSdrG(50-597).
In the next test the target is T3, fibrinogen (Fg). Kind of test: ELISA, increasing rSdrG(50-597) on immobilized Fg, anti-His-tag detection; apparent KD.
Test [3] has as its target T4, Fg treated with contortrixobin. Kind of test: ELISA of Example 2, Fg-coated wells pretreated with protease, biotin labeled rSdrG(50-597).
For test [4], the target named is B3. Kind of test: Western ligand blot.

B1: the “fold less active than the synthetic peptide β1-25 as inhibitor” value with rSdrG(50-597) [1] came to 10 fold.
In the test with rSdrG(50-597) [2], B2 registered a Kd of 140 nM.
With B3, the binding result with Aα chain of Fg was “no binding”; in the test with thrombin digested Fg, “no binding (tested: 25-1000 nM)”; in test [3], “no binding (tested: 25-1000 nM)”. Besides, the Kd with fibrinogen (Fg) turned out to be 90 nM.
For the molecule B4, the binding result with rSdrG(50-597) [4] is “binds”.
